This note sets out measurements from paper PMC10764275.

As a reminder, the Kd is the concentration at which binding is half-saturated. A lower Kd goes with a tighter complex. The term koff denotes a measure of how fast the partners let go of each other.

In the assay the target is Human ACE2 with Fc tag (human) (UniProt Q9BYF1). Nature of the assay: SPR.
Human ACE2 with Fc tag (human), sequence (Q9BYF1 18-740): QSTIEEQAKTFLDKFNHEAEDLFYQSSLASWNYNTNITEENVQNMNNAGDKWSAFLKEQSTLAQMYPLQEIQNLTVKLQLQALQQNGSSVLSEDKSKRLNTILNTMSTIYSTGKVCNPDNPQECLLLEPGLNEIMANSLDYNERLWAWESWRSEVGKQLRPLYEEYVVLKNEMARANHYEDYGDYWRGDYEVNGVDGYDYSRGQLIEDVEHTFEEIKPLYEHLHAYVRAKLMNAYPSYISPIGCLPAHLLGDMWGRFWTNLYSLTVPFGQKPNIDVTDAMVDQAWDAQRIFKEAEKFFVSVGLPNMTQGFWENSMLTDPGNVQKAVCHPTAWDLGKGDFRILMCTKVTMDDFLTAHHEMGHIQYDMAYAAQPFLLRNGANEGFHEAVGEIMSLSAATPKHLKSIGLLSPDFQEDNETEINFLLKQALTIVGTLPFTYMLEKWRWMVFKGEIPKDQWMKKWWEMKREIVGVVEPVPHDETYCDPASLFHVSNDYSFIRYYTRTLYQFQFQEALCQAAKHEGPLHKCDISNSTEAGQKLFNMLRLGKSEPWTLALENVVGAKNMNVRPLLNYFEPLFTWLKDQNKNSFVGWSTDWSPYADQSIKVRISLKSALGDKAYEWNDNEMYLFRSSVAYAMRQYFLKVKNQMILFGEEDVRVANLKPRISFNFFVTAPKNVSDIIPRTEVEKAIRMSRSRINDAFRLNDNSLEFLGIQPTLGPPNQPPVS

With WT RBD, the dissociation constant (Kd) came to 16 nM and the koff amounted to 0.0051 s⁻¹.
